From a protein production outcome set (Wang et al. 2014)

Experiment: label from the status in PepcDB records
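Also: failed if final PepcDB status was selected cloned or expressed and not failed if soluble or beyond.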

MKRLSITVRLTLLFILLLSVAGAGIVWTLYNGLASELKWRDDTTLINRTAQIKQLLIDGVNPDTLPVYFNRMMDVSQDILIIHGDSINKIVNRTNVSDGMLNNIPASETISAAGIYRSIINDTEIDALRINIDEVSPSLTVTVAKLASARHNMLEQYKINSIIICIVAIVLCSVLSPLLIRTGLREIKKLSGVTEALNYNDSREPVEVSALPRELKPLGQALNKMHHALVKDFERLSQFADDLAHELRTPINALLGQNQVTLSQTRSIAEYQKTIAGNIEELENISRLTENILFLARADKNNVLVKLDSLSLNKEVENLLDYLEYLSDEKEICFKVECNQQIFADKILLQRMLSNLIVNAIRYSPEKSRIHITSFLDTNSYLNIDIASPGTKINEPEKLFRRFWRGDNSRHSVGQGLGLSLVKAIAELHGGSATYHYLNKHNVFRITLPQRN
protein production: failed

MTLTPEAEIALFLRRLKWAAVIVGVLWVVSLLAPILTPFVLALLLAWLGDPLVDRIERAGRSRNVAVVLVFVLATLLFVLALMILVPMIERQIMTLIDALPQMRNWAIGTAIPWLEAKTGMQLMAWLDPERLIDWIRSHWEQAGGAAKTLFGYVSRSGFAMVTWVINLALLPILAFYFLRDWDRLVERVAAVIPRAYIGTASRLAQESNDVLGGFIRGQFLVMLALGAIYATGMSIIGLNLGLLIGIIAGLISFIPYLGATTGIVLALLAAIVQAQGLDLKLLIGVGVVFTVGQLLESYVLTPRIVGDKIGLHPVAVIFAVMAGGQLFGFLGMLLALPVAAVANVLLRYAHEQYTRSDLYAGERAGIVLRSTPERSVIIDPSKDADRL
protein production: failed

MPIGFLRSLTARHRNPVSNRRLARVLCFVAGAANAGGFLAVQQYTSHMSGIVSAIADDLVLQRYGLVVHGIGALASFLAGAGTTAILVNWARRARLRSEYAIPLLVEATLLLCFGLLGSHLNDMDWLFVPATVMLLCFMMGLQNALITKLSNAEIRTTHVTGMVTDIGIELGKLFYWNAAVRPNSRPVMADRHKLRLLTVLVGMFLVGGIVGAQAFSTLGYAATLPLAALLLIVAIIPVADDLLTRLLLRVHRADSARRARRWGARGR
protein production: failed

LGKILQGVVVVLSGFQNPFRSELRDKALELGAKYRPDWTRDSTHLICAFANTPKYSQVLGLGGRIVRKEWVLDCH
protein production: failed

MEGALAANWSAEAANASAAPPGAEGNRTAGPPRRNEALARVEVAVLCLILLLALSGNACVLLALRTTRQKHSRLFFFMKHLSIADLVVAVFQVLPQLLWDITFRFYGPDLLCRLVKYLQVVGMFASTYLLLLMSLDRCLAICQPLRSLRRRTDRLAVLATWLGCLVASAPQVHIFSLREVADGVFDCWAVFIQPWGPKAYITWITLAVYIVPVIVLATCYGLISFKIWQNLRLKTAAAAAAEAPEGAAAGDGGRVALARVSSVKLISKAKIRTVKMTFIIVLAFIVCWTPFFFVQMWSVWDANAPKEASAFIIVMLLASLNSCCNPWIYMLFTGHLFHELVQRFLCCSASYLKGRRLGETSASKKSNSSSFVLSHRSSSQRSCSQPSTA
protein production: not failed

MGSSHHHHHHSSGRENLYFQGGAGTSAAMRQATSPKTILEYIINFFTCGGIRRRNETQYQELIETMAETLKSTMPDRGAPLPENIILDDMDGCRVEFNLPGENNEAGQVIVRVSKGDHSETREIPLASFEKICRALLFRCEFSLPQDSVILTAQGGMNLKGAVLTGANLTS
protein production: not failed

MQDLNDIALFAAVVKHNGFSAAARDLNVPKSKLSKHVARLEEQLGVRLLERSTRKLRMTEVGRIFYEHAQGLLDGVAAAEAEIAAVRAEPTGVVRLACPIGFTPMLADILPAFHRRYPGVRLLITASNRRIDLIEERIDVALRARDQLDTDSQLIVRKFGEVRQRLAASPTLLARLGEITTDNLSQMPTLSMNEQHPNDVWRLVHATGGAIEIAHRPVVGCSDFLILERAAIEGMGIALLPDHICERAFRTGALVPVLPEWTSGNVMVHLVFPSRHGLLPATRALIDFLAENLIKALERCREVDPRPAASFEI
protein production: failed

MLPMLLWLVANLFLAPAAEGFHGMNKTNTWAVILSSSRYFFNLRHTTNALAMYHLCRKHGMDDDHILVFLSDSYACDPRKPNPATIYGAPAQAEQPNLYGCNIRVDYASYDVGVRRFLGVLQGRYDENTPPSRRLDTDENSNIIIYAAGHSAEKFFKFQDSEFMSSTDIADTLMMMWEQRRYRKLVFLVDTCRALSLCLEIKAPNVVCLASSEAHLDSYSHHLDPPSGFTVITRWTFEFLEVLKDSKCRPENGEVTLLQKSFYDFNYGPERLSLPQPLSEPAHFDAVNRPNAIREWKMDEFFCEQDRDKIPVELRYDLF
protein production: failed
